In patent publication US20110182814A1 (GENERAL HOSPITAL, published 2011):
Ends that are not written are not given here.

Key:
[1] = molecular target: T1, plectin-1 (mouse, of mouse PDAC cells) (mouse, UniProt Q9QXS1 1-4691); assay: flow cytometry, fluorescein-labelled phage on mouse PDAC cells against normal ductal cells
T1 construct: whole, on cells; On intact cells in the pulldown (photo-crosslink) and in flow cytometry; From cell lysate on a blot in the far western and the western; also called 500 kDa band
Protocol: (§1) Mouse Pancreatic ductal adenocarcinoma (PDAC) cells, human PDAC cells (i.e. MNA, 8988, SW1990, PaCa-2, ASPC), normal human ductal cells and normal pancreatic cells were incubated with 1 mM (FITC) FITC-labeled phage clone 27 or unrelated phage clone (amino acid sequence SNLHPSD, negative control (SEQ ID NO:XX)) for 1 hour at 37° C., washed 3× with DPBS and visualized by fluorescent microscopy (Nikon Eclipse TE2000-S, Insight QE, 40× objective). The cells were then harvested by incubation with trypsin, centrifuged, and analyzed (10,000 cells/sample) by flow cytometry on a Beckton Dickinson FACSCalibur (San Jose, Calif.). […] Mean fluorescence was plotted against cell number to show relative uptake between cell types.
Validation of Clone 27 as a PDAC marker (FIG. 1B) was done in experiments described herein, in addition to testing clones 1 (SGVEFLH, SEQ ID NO:4), 9 (SKKDTHH, SEQ ID NO:5), 15 (TMAPSIK, SEQ ID NO:6), 17 (TQHQVTA, SEQ ID NO:7), and 22 (VNDRNVK, SEQ ID NO:8). The phage coat proteins were fluorescein labeled then the extent of phage clone binding and specificity quantified for mouse PDAC and normal ductal cells via flow cytometry (FIG. 1B). […] Phage clone 15 was second in affinity with the remainder having nearly identical specificity.

[2] = molecular target: human plectin-1 (of human PDAC cell lines) (human, UniProt Q15149 1-4684); assay: flow cytometry, FITC-labelled phage on PDAC cell lines, average over lines, reference is the FITC-labelled unrelated phage clone
Protocol: as §1
The specificity of Clone 27 for human PDAC cells was evaluated as described in this example. Clone 27 and an unrelated phage clone were labeled with FITC, producing FITC-27 and a FITC-unrelated phage clone (negative control). Mouse PDAC cells as a positive control along with five human PDAC cell lines and with normal human ductal cells were incubated with each type of clone and then uptake of the clone was analyzed via fluorescence-activated cell sorter (FACS).

T1 sequence (Q9QXS1 whole entry): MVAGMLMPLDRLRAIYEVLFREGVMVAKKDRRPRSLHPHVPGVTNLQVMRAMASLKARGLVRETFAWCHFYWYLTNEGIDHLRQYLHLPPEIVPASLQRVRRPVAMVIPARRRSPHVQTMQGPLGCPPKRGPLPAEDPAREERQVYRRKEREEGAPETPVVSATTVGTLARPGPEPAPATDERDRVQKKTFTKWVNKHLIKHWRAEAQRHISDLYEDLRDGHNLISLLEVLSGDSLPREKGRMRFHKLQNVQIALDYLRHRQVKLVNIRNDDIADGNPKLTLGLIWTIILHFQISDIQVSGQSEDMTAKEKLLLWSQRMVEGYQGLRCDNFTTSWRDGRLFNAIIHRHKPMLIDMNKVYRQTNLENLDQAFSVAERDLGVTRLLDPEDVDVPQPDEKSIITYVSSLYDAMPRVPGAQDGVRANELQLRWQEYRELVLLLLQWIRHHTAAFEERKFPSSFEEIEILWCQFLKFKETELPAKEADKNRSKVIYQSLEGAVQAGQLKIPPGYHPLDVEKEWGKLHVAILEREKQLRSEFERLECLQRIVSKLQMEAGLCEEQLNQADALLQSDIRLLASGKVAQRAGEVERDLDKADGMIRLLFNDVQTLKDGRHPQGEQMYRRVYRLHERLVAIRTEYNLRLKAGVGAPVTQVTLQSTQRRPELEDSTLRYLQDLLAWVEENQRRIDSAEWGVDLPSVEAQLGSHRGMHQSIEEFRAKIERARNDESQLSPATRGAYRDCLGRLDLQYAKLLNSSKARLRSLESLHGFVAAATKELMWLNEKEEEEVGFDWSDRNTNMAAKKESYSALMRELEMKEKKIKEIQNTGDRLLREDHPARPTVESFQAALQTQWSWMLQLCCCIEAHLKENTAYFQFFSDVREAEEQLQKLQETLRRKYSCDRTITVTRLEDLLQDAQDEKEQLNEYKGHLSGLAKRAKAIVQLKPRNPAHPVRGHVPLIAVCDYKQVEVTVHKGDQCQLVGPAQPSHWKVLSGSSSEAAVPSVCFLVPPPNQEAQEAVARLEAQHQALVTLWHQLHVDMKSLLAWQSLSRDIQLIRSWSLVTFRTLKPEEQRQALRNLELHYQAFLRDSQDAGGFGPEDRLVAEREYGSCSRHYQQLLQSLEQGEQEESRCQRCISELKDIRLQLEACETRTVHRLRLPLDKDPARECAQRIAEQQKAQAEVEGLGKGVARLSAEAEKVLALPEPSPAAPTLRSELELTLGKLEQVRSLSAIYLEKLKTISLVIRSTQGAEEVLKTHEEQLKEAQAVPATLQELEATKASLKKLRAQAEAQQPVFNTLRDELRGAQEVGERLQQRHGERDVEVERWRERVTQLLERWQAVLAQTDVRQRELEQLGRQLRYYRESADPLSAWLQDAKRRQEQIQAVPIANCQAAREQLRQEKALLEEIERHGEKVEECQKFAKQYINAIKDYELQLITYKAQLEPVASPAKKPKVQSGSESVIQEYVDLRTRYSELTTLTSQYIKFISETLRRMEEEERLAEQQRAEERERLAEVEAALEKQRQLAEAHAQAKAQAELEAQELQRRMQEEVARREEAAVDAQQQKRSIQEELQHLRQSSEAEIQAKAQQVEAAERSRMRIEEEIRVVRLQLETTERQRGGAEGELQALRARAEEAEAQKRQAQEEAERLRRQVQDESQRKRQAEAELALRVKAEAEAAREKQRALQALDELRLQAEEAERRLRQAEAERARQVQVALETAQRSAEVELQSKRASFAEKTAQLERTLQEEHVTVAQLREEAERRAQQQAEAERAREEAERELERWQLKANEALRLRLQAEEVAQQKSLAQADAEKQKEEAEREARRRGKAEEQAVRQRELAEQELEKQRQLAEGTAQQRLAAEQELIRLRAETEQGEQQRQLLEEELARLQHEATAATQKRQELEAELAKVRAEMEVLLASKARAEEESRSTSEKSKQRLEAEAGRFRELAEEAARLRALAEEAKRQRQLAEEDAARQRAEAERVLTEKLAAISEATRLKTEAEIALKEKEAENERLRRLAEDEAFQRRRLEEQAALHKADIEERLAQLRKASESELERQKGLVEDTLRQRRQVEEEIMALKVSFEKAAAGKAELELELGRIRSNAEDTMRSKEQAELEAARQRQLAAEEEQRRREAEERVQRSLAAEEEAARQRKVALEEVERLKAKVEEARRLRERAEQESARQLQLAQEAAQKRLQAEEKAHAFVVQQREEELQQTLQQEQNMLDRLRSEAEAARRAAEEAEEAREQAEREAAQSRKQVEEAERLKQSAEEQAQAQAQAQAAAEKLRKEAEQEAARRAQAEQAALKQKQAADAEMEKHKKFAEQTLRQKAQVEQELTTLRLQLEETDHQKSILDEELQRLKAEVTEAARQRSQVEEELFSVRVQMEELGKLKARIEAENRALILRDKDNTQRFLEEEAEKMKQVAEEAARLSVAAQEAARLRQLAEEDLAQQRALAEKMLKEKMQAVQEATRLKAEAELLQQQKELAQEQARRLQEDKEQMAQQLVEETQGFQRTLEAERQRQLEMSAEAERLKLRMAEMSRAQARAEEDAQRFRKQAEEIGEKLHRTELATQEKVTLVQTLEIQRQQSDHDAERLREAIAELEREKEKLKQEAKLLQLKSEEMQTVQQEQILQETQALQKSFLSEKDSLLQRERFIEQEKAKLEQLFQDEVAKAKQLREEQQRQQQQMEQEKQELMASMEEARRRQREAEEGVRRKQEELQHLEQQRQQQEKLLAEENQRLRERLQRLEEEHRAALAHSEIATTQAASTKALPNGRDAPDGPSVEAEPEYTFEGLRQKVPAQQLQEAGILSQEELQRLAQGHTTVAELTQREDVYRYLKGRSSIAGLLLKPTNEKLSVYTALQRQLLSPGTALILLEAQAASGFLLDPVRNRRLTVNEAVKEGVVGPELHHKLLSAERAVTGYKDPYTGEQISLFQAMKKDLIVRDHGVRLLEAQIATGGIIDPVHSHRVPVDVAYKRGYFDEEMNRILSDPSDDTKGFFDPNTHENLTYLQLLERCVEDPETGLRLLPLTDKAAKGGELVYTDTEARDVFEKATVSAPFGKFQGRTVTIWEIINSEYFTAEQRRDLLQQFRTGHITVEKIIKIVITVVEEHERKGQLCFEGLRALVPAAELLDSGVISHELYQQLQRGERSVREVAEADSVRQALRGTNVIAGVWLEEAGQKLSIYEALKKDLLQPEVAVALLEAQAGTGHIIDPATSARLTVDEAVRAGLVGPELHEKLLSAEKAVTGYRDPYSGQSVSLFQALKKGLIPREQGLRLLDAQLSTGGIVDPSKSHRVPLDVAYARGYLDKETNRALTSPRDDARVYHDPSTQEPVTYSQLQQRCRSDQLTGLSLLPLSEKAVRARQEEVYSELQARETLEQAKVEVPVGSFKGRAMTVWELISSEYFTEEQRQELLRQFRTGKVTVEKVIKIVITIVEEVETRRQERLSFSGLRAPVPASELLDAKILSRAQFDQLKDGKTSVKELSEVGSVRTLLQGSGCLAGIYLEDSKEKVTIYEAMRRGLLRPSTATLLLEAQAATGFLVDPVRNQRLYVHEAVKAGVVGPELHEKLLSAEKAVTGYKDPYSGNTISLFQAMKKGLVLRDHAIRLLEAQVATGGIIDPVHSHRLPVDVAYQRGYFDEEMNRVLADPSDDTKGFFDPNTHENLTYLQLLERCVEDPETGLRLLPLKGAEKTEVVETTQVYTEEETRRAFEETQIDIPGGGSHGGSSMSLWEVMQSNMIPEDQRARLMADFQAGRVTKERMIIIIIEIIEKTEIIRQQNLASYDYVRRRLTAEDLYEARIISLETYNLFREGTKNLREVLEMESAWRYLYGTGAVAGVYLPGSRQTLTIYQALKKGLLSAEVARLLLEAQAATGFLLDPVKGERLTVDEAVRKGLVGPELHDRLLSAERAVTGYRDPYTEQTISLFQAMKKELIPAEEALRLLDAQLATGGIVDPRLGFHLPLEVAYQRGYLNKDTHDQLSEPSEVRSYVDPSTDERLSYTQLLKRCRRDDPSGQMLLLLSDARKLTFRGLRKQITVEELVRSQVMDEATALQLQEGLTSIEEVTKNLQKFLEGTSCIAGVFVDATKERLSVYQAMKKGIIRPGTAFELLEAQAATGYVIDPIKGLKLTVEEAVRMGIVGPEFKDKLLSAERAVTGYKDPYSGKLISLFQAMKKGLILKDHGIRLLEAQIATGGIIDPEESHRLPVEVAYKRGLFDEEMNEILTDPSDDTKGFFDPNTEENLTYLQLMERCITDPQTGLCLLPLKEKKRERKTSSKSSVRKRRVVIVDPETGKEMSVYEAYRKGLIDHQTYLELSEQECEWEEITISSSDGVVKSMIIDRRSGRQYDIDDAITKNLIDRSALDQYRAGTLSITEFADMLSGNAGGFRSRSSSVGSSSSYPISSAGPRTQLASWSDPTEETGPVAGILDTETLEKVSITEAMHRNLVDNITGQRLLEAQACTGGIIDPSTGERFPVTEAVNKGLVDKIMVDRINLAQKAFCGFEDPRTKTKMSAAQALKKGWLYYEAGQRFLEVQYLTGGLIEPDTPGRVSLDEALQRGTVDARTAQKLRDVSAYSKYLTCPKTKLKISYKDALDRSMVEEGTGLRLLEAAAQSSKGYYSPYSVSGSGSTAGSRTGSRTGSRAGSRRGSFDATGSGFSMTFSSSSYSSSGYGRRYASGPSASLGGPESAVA

B1: phage clone 27 displaying the peptide KTLLPTP (SEQ ID NO:1) (peptide)
peptide: KTLLPTP
modifications: also: displayed on M13 phage coat protein, phage labelled with FITC or biotin
notes: Tested as whole labelled phage, not as free peptide; also called FITC-27; PDAC-27; not shown: M13 phage coat protein carrying the 7-mer of the phD7 library (New England Biolabs)
In the case of B1, the “specificity over normal ductal cells” value [1] is reported as 112 fold and the “specificity (ratio of clone 27/unrelated clone mean fluorescence)” value [2] is reported as 141 ratio.
